pKd: −log10 of the molar value. Where two headings read alike, the source gives them in different places. Each block holds one substance with its values, some of them ahead of it.
Columns and labels:
[1] = molecular target: N-SH2 domain of SHP2 (residues 2–111) (human) (UniProt Q06124)
[2] = molecular target: N-SH2 domain of SHP2 (residues 2–111) (human) (UniProt Q06124); remark: listed apart in the source
[3] = molecular target: N-SH2 domain of SHP2 (residues 2–111) (human) (UniProt Q06124); test: fluorescence polarisation; fluorescence anisotropy, displacement: 0.10 nM CF-P9W5 (0.5 nM for P8 and OP) with […] N-SH2 titrated with unlabelled peptide; fluorescence buffer

pKd [1]: 7.28
Substance: CF-P9, fluorescently labeled IRS-1 pY1172 analogue (nine residues) (peptide)

pKd [2]: 5.18
Substance: CF-P9Y0, unphosphorylated analogue of the labeled IRS-1 pY1172 peptide

pKd [3]: 8.80
Substance: P8W5, P8 analogue with W at position +5 (peptide)
